This is an account of results in PMC10269531, “NH125 Sensitizes Staphylococcus aureus to Cell Wall-Targeting Antibiotics through the Inhibition of the VraS Sensor Histidine Kinase” (Microbiology Spectrum, 2023).

The target of data set [1] is T1, VraS sensor histidine kinase (GST-VraS) (Staphylococcus aureus, UniProt Q99SZ7).
T1 construct: GST-tagged intracellular domain, amino acids 85 to 347 (DHp and CAT)
As to the kind of experiment: PK/LDH-coupled ATPase (autophosphorylation) assay, NADH absorbance at […] nm; Michaelis-Menten inhibition kinetics. It is filed as biochemical.

The subject of data set [2] is Nc1ncnc2c1ncn2[C@@H]1O[C@H](COP(=O)(O)OP(=O)(O)OP(=O)(O)O)[C@@H](O)[C@H]1O. Put plainly: PK/LDH-coupled ATPase assay, Michaelis-Menten kinetics (KM of ATP). It is filed as biochemical, Staphylococcus aureus. The following applies: Mg2+ catalytic domain (CAT) that binds ATP.

T1 sequence (Q99SZ7 85-347): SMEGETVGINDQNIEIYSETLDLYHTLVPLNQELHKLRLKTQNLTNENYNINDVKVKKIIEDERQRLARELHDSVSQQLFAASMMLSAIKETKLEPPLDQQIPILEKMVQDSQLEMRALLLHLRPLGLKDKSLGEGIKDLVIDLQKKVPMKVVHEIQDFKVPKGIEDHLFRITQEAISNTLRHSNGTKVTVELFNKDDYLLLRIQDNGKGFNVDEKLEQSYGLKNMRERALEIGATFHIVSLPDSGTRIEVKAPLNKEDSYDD

Broadly, the IC50 is the point on the concentration scale where inhibition reaches its midpoint. A lower IC50 goes with higher potency. In data set [1], `CCCCCCCCCCCCCCCC[n+]1ccn(Cc2ccccc2)c1C` [NH125] registered an IC50 of 41 ± 5 µM.

As usually defined, the Km is the concentration of substrate that gives half-maximal velocity. Broadly, the Vmax is the top rate of the reaction or transport when substrate is in excess. By kcat is commonly meant the number of substrate molecules converted per active site and unit of time at saturation. As a reminder, the kcat/Km is the second-order rate constant that governs catalysis at low substrate concentration. As to “VraS sensor histidine kinase (GST-VraS) (Staphylococcus aureus subsp. aureus N315)”, in data set [2], the Km was found to be 6.7 ± 1.6 µM, the Vmax came out at 0.000108 µmol/min, the kcat stood at 0.0169 ± 0.0056 s⁻¹ and the kcat/Km is 2600 ± 600 M⁻¹ s⁻¹.
